Laboratory results reported in patent US20140056903A1 (Regeneron, published 2014).

T1: human GFRα2 expressed with a C-terminal human Fc tag and a hexahistidine tag (human, UniProt O00451 22-441, limits assumed)
T1 construct: bought protein; also called hGFRα2-hFc-6His; hGFRα2-hFc-6his
T1 sequence (looked up): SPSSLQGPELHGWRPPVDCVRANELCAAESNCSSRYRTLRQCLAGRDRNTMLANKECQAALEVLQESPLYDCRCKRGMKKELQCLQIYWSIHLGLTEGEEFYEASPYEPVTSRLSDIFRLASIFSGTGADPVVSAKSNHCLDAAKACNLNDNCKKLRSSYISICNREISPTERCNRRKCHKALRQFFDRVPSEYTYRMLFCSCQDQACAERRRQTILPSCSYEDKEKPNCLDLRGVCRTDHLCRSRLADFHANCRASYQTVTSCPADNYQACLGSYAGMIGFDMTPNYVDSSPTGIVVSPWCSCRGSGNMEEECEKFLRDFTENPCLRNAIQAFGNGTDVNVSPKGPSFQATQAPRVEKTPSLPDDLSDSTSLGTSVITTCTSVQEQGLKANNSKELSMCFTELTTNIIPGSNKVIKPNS

T2: human GFRα1 expressed with a C-terminal human Fc tag and a hexahistidine tag (human, UniProt P56159 25-429, limits assumed)
T2 construct: bought protein; also called hGFRα1-hFc-6His; hGFRα1-hFc-6his
T2 sequence (looked up): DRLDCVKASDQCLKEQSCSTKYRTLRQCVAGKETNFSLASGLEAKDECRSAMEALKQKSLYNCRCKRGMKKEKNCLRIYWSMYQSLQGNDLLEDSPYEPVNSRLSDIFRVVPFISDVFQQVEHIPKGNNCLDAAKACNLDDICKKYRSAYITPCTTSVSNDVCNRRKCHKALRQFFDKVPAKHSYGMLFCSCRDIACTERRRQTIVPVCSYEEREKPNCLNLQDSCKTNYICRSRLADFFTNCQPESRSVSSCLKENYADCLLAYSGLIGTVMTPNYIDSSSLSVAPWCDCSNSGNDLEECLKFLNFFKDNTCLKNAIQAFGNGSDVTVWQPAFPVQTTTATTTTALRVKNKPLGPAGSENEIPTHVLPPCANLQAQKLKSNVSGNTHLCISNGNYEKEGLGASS


What was measured:
[1] = biological target: T3, human GFRα3 expressed with a C-terminal hFc tag (human); assay: blocking ELISA 1, hGFRα3-hFc to coated hARTEMIN-mmH
T3 construct: also called hGFRα3-hFc
Protocol: A constant amount of human GFRα3 fused with a C-terminal human Fc tag (hGFRα3-hFc; SEQ ID:371) at 120 pM was pre-mixed with varying amounts of antibodies, ranging from 0 to ˜10 nM in serial dilutions, followed by an 1 hour incubation at room temperature (RT) to allow antibody-hGFRα3-hFc binding to reach equilibrium. The equilibrated sample solutions were then transferred to the hARTEMIN-mmH-coated plate. […] Absorbance was recorded at 450 nm on a Victor X5 plate reader (Perkin Elmer) to determine the amount of free hGFRα3-hFc in the pre-equilibrated hGFRα3-hFc-antibody solutions that was able to bind to the plate coated with hARTEMIN-mmH. IC₅₀ values, defined as the concentration of antibody required to reduce the signal from a constant concentration of hGFRα3-hFc by 50%, were calculated from the data using Prism software from GraphPad. The absorbance measured at the constant amount of 120 pM hGFRα3-hFc in the absence of anti-GFRα3 antibody is defined as 0% blocking and the absorbance with no added hGFRα3-hFc is defined as 100% blocking. The observed absorbance in the wells containing the highest antibody concentration was used to calculate the maximum blocking percent shown in the table.

[2] = biological target: T4, human GFRα1 expressed with only a C-terminal human Fc tag (human); assay: BLI Octet, antigen captured on anti-hFc tips
T4 construct: also called hGFRα1-hFc
Protocol: (§1) The ability of anti-GFRα3 antibodies to bind to GDNF-family receptors was assessed using an Octet Red biosensor (Fortebio, Inc.). Antibodies were tested for binding to either human GFRα1 expressed with a C-terminal human Fc tag and a hexahistidine tag (hGFRα1-hFc-6His, R&D Systems #714-GR), human GFRα1 expressed with only a C-terminal human Fc tag (hGFRα1-hFc; SEQ ID: 376), human GFRα2 expressed with a C-terminal human Fc tag and a hexahistidine tag (hGFRα2-hFc-6His, R&D Systems #613-FR), human GFRα3 expressed with a C-terminal human Fc tag (hGFRα3-hFc, SEQ ID:371), or an irrelevant human Fc tagged protein. Antigens were captured onto anti-human Fc sensor tips from 10 ug/mL solutions for 5 minutes. The coated sensor tips were then blocked with a 100 ug/mL solution of irrelevant human Fc antibodies for 5 minutes. Blocked sensor tips were then submerged into wells containing […] of each anti-GFRα3 antibody or buffer alone for 10 minutes. The experiment was performed at 25° C. with a flow rate of 1000 rpm using HBST+BSA buffer (10 mM HEPES, 150 mM NaCl, 3 mM EDTA, 0.05% w/v Surfactant P20, 0.1 mg/mL BSA, pH 7.4). The binding response (measured in units of nm) at each step of the experiment was monitored and recorded.

[3] = biological target: T1, human GFRα2 expressed with a C-terminal …; assay: BLI Octet, antigen captured on anti-hFc tips
Protocol: as §1

[4] = biological target: T3, human GFRα3 expressed with a C-terminal …; assay: BLI Octet, antigen on anti-hFc tips, 100 ug/mL Ab
Protocol: as §1

[5] = biological target: T4, human GFRα1 expressed with only a …; assay: BLI Octet, antigen on anti-hFc tips, 100 ug/mL Ab
Protocol: as §1

[6] = biological target: T2, human GFRα1 expressed with a C-terminal …; assay: BLI Octet, antigen on anti-hFc tips, 100 ug/mL Ab
Protocol: as §1

[7] = biological target: T1, human GFRα2 expressed with a C-terminal …; assay: BLI Octet, antigen on anti-hFc tips, 100 ug/mL Ab
Protocol: as §1

[8] = biological target: T5, irrelevant human Fc tagged protein; assay: BLI Octet, antigen on anti-hFc tips, 100 ug/mL Ab
T5 construct: negative control antigen; also called Irrelevant hFc tagged protein
Protocol: as §1

T3 sequence (chain, as listed by the source limits assumed): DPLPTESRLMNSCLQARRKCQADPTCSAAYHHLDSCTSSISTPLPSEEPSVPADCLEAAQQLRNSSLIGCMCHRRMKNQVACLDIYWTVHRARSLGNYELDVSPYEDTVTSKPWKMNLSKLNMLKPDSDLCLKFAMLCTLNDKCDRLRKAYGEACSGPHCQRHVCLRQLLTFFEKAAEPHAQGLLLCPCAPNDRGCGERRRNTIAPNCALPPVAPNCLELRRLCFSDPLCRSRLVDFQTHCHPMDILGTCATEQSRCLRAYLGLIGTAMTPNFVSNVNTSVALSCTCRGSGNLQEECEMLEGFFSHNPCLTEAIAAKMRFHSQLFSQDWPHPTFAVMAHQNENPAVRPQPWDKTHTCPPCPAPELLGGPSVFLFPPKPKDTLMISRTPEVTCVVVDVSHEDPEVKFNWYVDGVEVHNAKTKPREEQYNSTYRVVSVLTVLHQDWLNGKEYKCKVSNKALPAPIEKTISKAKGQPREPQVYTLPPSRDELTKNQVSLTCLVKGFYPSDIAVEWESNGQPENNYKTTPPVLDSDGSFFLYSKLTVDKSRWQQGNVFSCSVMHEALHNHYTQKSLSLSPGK

| % max blocking [1] | IC50 [1] | binding result [2] | binding result [3] | Bound (nm) [4] | Bound (nm) [5] | Bound (nm) [6] | Bound (nm) [7] | Bound (nm) [8] | Binder |
| --- | --- | --- | --- | --- | --- | --- | --- | --- | --- |
| 94% | 0.133 nM | – | – | – | – | – | – | – | H4H2344S (antibody, human IgG4, V domains shown, human IgG4 Fc (H4H)) VH: EVQLVESGGGVVQPGRSLRLSCAASGFSFSDYVMHWVRQAPGKGLEWVASIWFDGSNEFYADSVKGRFTISRDNSKNTLFLQMNSLRAEDTAVYYCAKKGVLVATSAFDIWGQGTMVTVSS VL: DIQMTQSPSSLSASVGDRVTITCRASQSINNYLNWYHQKPGKAPKLLIYAASSLQSGVPSRFSGSGSGTDYTLTISSLQPEDFGNYYCQQSYRTSMYTFGQGTKVEIK |
| 93% | 0.26 nM | – | – | – | – | – | – | – | H4H2293P (antibody, human IgG4, V domains shown, human IgG4 Fc (H4H)) VH: QVQLVESGGGVVQPGRSLRLSCAASGFSFSDYVMHWVRQAPGKGLEWVASIWFDGSNELYADSVKGRFTISRDNSKNTLFLQMNSLRAEDTAVYYCAKKGVLVATSAFHIWGQGTMVTVSS VL: AIQMTQSPSSLSASVGDRVTITCRASQNINNYLNWYHQKPGKAPNLLIYAASSLQSGVPSRFSGSGSGTDYTLTISSLQPEDFGNYYCQQSYSTSMYTFGQGTKLEIK |
| 92% | 0.0978 nM | – | – | – | – | – | – | – | H4H2346S (antibody, human IgG4, V domains shown, human IgG4 Fc (H4H)) VH: QVQLVESGGGVVQPGRSLRLSCAASGFSFSDYVMHWVRQAPGKGLEWVASIWFDGSNEFYADSVKGRFTISRDNSKNTLFLQMNSLRAEDTAVYYCAKKGVLVATSAFDIWGQGTMVTVSS VL: EIVMTQSPSSLSASVGDRVTITCRASQSINNYLNWYHQKPGKAPKLLIYAASSLQSGVPSRFSGSGSGTDYTLTISSLQPEDFGNYYCQQSYRTSMYTFGQGTKVEIK |
| 92% | 0.116 nM | – | – | – | – | – | – | – | H4H2354S (antibody, human IgG4, V domains shown, human IgG4 Fc (H4H); also called H4H2354S-1) VH: QVQLVESGGGVVQPGRSLRLSCAASGFSFSDYVMHWVRQAPGKGLEWVASIWFDGSNEFYADSVKGRFTISRDNSKNTLFLQMNSLRAEDTAVYYCAKKGVLVATSAFDIWGQGTMVTVSS VL: DIQLTQSPSSLSASVGDRVTITCRASQSINNYLNWYHQKPGKAPKLLIYAASSLQSGVPSRFSGSGSGTDYTLTISSLQPEDFGNYYCQQSYRTSMYTFGQGTKVEIK |
| – | – | no binding (tested: 100 ug/mL) | no binding (tested: 100 ug/mL) | 1.17 nm | 0.04 nm | 0.03 nm | 0.06 nm | 0.03 nm | H4H2294S (antibody, human IgG4, V domains shown, human IgG4 Fc (H4H)) VH: EVQLVESGGGLVQPGGSLRLSCAASGFTFSSYAMSWVRQAPGKGLEWVSVISGSGGSTYYADAVKGRFTISRDNSKHTLYLQMNSLRAEDTAVYYCTKPSSYSSSNFYYGMDVWGQGSTVTVSS VL: DIQLTQSPSSVSASVGDRVTITCRASQGISSWLAWYQQKPGKAPKLLIYAASSLQSGVPSRFSGSGSGTDFTLTISSLQPEDFATYYCQQTNSFPFPFGPGTKVDIK |
| – | – | no binding (tested: 100 ug/mL) | no binding (tested: 100 ug/mL) | 1.59 nm | 0.06 nm | 0.08 nm | 0.12 nm | 0.07 nm | H4H2342P (antibody, human IgG4, V domains shown, human IgG4 Fc (H4H)) VH: EVQLLESGGGLVQPGGSLRLSCAASGFTFSTYAMSWVRQAPGKGLEWVSAIRGNGVNTYYGDSMKGRFTISRDNSKDTLYLQMNSLRAEDTAVYYCAKNKWELLVFEYWGQGTLVTVSS VL: DIQMTQSPSSLSASVGDRVTITCRASQDISNYLAWYQQKPGKVPKLLIYAASTLQSGVPFRFSGSGSGTDFTLTISSLQPEDVATYYCQKYNSAPPFGPGTKVDIK |
| 81% | 0.0438 nM | no binding (tested: 100 ug/mL) | no binding (tested: 100 ug/mL) | 1.18 nm | 0 nm | -0.01 nm | 0.02 nm | 0 nm | H4H2212N (antibody, human IgG4, V domains shown, human IgG4 Fc (H4H)) VH: EVQLLESGGGLVQPGGSLRLSCAASGFTFSSYAMSWVRQGPGKGLEWVSGISGSGGSTYNADSVKGRFTISRDNSKNTLYLQMNSLRAEDTAVYYCAKDSGTYWYYFDYWGQGILVTVSS VL: not shown |
| 89% | 0.723 nM | no binding (tested: 100 ug/mL) | no binding (tested: 100 ug/mL) | 1.04 nm | 0.05 nm | 0.03 nm | 0.05 nm | 0.02 nm | H4H2292S (antibody, human IgG4, V domains shown, human IgG4 Fc (H4H)) VH: EVQLVESGGGVVQPGRSLRLSCAASGFTFSSYGMHWVRQAPGKGLEWVSFIWYDGSNKYYADSVKGRFTISRDNSKNTLYLQMNSLTAEDTAVYYCARRGILTGTTAFDIWGQGTMVTVSS VL: DIQMTQSPSSLSASVGDRVTITCRASQSISSYLNWYQQKPGKAPKLLIYAASSLQSGVPSRFSGSGSGTDFTLTIRSLIPEDFATYYCQQTYNTPFTFGPGTKVEIK |
| – | – | no binding (tested: 100 ug/mL) | no binding (tested: 100 ug/mL) | 1.11 nm | 0.03 nm | 0.03 nm | 0.06 nm | 0.03 nm | H4H2243N2 (antibody, human IgG4, V domains shown, human IgG4 Fc (H4H)) VH: QVQLVQSGAEVKKPGASVKVSCKASGYTFTSYGIIWVRQAPGQGLEWMGWISGYNGNTNYAQNLQGRVTMTTDTSTTTAYMELRSLRSDDTAVYYCARWGIATRPYYYYGMDVWGQGTTVTVSS VL: DIQMTQSPSSLSASVGDRVTITCRASQDITNYLAWFQQKPGKAPKSLIYAASSLQSGVPSKFSGSGSGTDFTLTISSLQPEDFATYYCQQYNSYPPTFGPGTKVDIK |
| 93% | 0.496 nM | – | – | – | – | – | – | – | H4H2350P (antibody, human IgG4, V domains shown, human IgG4 Fc (H4H)) VH: QVQLQESGPGLVKPSETLSLTCTVSGGSISTYYWSWFRQPPGKGLEWIGYIYYSGSTNHNPSLKSRVTISVDTSKNQFSLKLRSVTAADTAVYYCARVGPVGWGSWGNFDYWGQGTLVTVSS VL: DIQLTQSPSFLSASVGDRVTITCWASQGISSYLAWSQQKPGKAPKLLIYAASTLQSGVPSRFSGSGSGTEFTLTISSLQPEDFATYYCQQLNSYPWTFGQGTKVEIK |
